In patent US5616475:

Target: T1, TRC-1 (p21 SNF-1/JunB heteromultimer), SLB-I nuclear extract (Homo sapiens) (UniProt Q9NR55+P17275)
T1 sequence 1: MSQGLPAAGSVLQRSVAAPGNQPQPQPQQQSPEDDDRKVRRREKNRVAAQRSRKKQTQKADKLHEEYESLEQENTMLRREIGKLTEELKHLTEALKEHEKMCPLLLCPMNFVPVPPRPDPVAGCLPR
T1 sequence 2: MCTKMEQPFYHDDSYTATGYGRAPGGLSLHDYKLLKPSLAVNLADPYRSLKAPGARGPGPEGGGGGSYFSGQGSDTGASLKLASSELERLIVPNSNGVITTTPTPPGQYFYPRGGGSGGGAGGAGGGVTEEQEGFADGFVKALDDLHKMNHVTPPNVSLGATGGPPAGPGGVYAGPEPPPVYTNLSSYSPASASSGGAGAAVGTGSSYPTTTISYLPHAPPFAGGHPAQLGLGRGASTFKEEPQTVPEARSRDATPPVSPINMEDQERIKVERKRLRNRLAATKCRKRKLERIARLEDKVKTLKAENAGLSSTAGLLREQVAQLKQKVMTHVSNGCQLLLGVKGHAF
Assay: competition
Details: EMSA, site2 probe

HTLV-1 LTR 21-bp repeat site1 (s1) showed a binding signal (fold excess for 55% competition) of 100.

With HTLV-1 LTR 21-bp repeat site3 (s3) the binding signal (fold excess for 55% competition) (nearly 50-fold) was 50.

Substance HTLV-1 LTR 21-bp repeat site2 (s2) has a binding signal (% competition at 12.5-fold excess) (on ice) of 55.
